This note sets out measurements from patent US20240109965A1 (Ablynx, published 2024).

As a reminder, the Kd is the equilibrium constant for the complex coming apart. Read a high Kd as weaker binding. In general, koff refers to the rate constant with which the complex falls apart. High values mean fast dissociation, low ones slow dissociation. In general, kon refers to the second-order rate constant of association. Low readings indicate slower complex formation, high ones faster complex formation.

First the molecules themselves.
B1: T017000700 (VHH)
VHH: EVQLVESGGGVVQPGGSLRLSCVASGYVHKINFYGWYRQAPGKEREKVAHISIGDQTDYADSAKGRFTISRDESKNTVYLQMNSLRPEDTAAYYCRALSRIWPYDYWGQGTLVTVSS
B2: T017000946 (VHH)
VHH: EVQLVESGGGVVQPGGSLRLSCVASGYVHKINFYGWYRQAPGKEREKVAHISIGDQTDYAASAKGRFTISRDESKNTVYLQMNSLRPEDTAAYYCRALSRIWPYDYWGQGTLVTVSS
B3: T017000938 (VHH)
VHH: EVQLVESGGGVVQPGGSLRLSCVASGYVHKINFYGWYRQAPGKEREKVAHISIGDQTDYAPSAKGRFTISRDESKNTVYLQMNSLRPEDTAAYYCRALSRIWPYDYWGQGTLVTVSS
B4: T017000944 (VHH)
VHH: EVQLVESGGGVVQPGGSLRLSCVASGYVHKINFYGWYRQAPGKEREKVAHISIGDQTDYAVSAKGRFTISRDESKNTVYLQMNSLRPEDTAAYYCRALSRIWPYDYWGQGTLVTVSS
B5: T017000940 (VHH)
VHH: EVQLVESGGGVVQPGGSLRLSCVASGYVHKINFYGWYRQAPGKEREKVAHISIGDQTDYARSAKGRFTISRDESKNTVYLQMNSLRPEDTAAYYCRALSRIWPYDYWGQGTLVTVSS
B6: T017000951 (VHH)
VHH: EVQLVESGGGVVQPGGSLRLSCVASGYVHKINFYGWYRQAPGKEREKVAHISIGDQTDYASSAKGRFTISRDESKNTVYLQMNSLRPEDTAAYYCRALSRIWPYDYWGQGTLVTVSS
B7: T017000967 (VHH)
VHH: EVQLVESGGGVVQPGGSLRLSCVASGYVHKINFYGWYRQAPGKEREKVAHISIGDQTDYADSAKGRFTISRDESKNTVYLQMNSLRPEDTAAYYCRALSRIYPYDYWGQGTLVTVSS
B8: T017000949 (VHH)
VHH: EVQLVESGGGVVQPGGSLRLSCVASGYVHKINFYGWYRQAPGKEREKVAHISIGDQTDYAQSAKGRFTISRDESKNTVYLQMNSLRPEDTAAYYCRALSRIWPYDYWGQGTLVTVSS
B9: T017000945 (VHH)
VHH: EVQLVESGGGVVQPGGSLRLSCVASGYVHKINFYGWYRQAPGKEREKVAHISIGDQTDYAESAKGRFTISRDESKNTVYLQMNSLRPEDTAAYYCRALSRIWPYDYWGQGTLVTVSS

This assay has as its target T1, cynomolgus TCRαβ-zipper protein (cynomolgus).
T1 construct: also called cyTCR(AEA41865)-zipper; CynoTCRαβ-zipper
T1 TCR alpha: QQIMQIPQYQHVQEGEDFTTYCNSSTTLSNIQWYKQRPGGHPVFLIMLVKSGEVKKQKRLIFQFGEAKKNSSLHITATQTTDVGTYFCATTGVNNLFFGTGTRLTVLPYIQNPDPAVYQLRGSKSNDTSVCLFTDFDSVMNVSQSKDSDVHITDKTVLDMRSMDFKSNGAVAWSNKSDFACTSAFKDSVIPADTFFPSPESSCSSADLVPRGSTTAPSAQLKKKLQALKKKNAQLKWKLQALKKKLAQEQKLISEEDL
T1 TCR beta: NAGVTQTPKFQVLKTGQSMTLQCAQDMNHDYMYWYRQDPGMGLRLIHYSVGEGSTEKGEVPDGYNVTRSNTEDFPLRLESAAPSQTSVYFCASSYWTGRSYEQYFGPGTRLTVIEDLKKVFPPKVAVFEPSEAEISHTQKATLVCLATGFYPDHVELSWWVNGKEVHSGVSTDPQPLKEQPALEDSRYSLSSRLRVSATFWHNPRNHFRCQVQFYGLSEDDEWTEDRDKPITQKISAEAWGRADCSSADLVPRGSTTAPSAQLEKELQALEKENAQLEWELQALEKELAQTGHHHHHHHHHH
As to the kind of experiment: SPR ProteOn XPR36, multi-cycle kinetics, TCR-zipper immobilized.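 Also: monovalent His-tagged ISVD constructs flowed at six concentrations over amine-coupled TCR on a GLC chip, 120 s association, 600 s dissociation, double-referenced, fitted to 1:1 Langmuir model.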
Procedure: Binding of purified, monovalent TCE-FLAG3-HIS6 and TCE-HIS6 ISVD constructs to human TCRαβ-zipper protein (huTCR(2XN9)-zipper, in-house produced) and cynomolgus TCRαβ-zipper protein (cyTCR(AEA41865)-zipper, in-house produced) was probed by Surface Plasmon Resonance (SPR) (Bio-rad Laboratories, Inc., ProteOn XPR36). Both targets were immobilized on a GLC sensor chip (short matrix, normal capacity) using standard amine coupling chemistry. ISVD constructs were injected at 6 different concentrations in a multi-cycle kinetics (MCK) experiment. Each concentration of the ISVDs was injected for 120s and dissociation was assessed during 600s.
Data was double referenced by subtracting a reference analyte lane and a blank buffer injection. Affinity constants (ka, kd and KD) were calculated applying the Langmuir 1:1 interaction model using the ProteOn Manager 3.1.0 (Bio-rad Laboratories, Inc., Version 3.1.0.6).
B1: the Kd came to 8 nM.
On to B2, for which the “KD ratio cy/huTCR” value came to 3.1, the “KD ratio vs ref” value was 0.9, binding was characterised by a dissociation constant (Kd) of 7 nM and the koff worked out at 0.0019 s⁻¹. Moreover, the kon is 270000 M⁻¹ s⁻¹.
For the molecule B3, the “KD ratio cy/huTCR” value is 3.2, the “KD ratio vs ref” value is 0.8, the Kd came to 6.7 nM and the koff was 0.0019 s⁻¹. Further, the kon is 280000 M⁻¹ s⁻¹.
With B4, the “KD ratio cy/huTCR” value came out at 3; the “KD ratio vs ref” value is 0.9; the affinity, expressed as Kd, was 7 nM; the koff is 0.0019 s⁻¹. This molecule also had a kon of 280000 M⁻¹ s⁻¹.
As for B5, the “KD ratio cy/huTCR” value is 3.2, the “KD ratio vs ref” value is 0.8, the Kd came to 6.1 nM and the koff is 0.0019 s⁻¹. The kon turned out to be 320000 M⁻¹ s⁻¹.
The corresponding values for B6 are 3, 0.9, 7.4 nM, 0.002 s⁻¹ and 260000 M⁻¹ s⁻¹.
The corresponding values for B7 are 3.1, 1.7, 14 nM, 0.0028 s⁻¹ and 200000 M⁻¹ s⁻¹.
On to B8, for which the “KD ratio cy/huTCR” value came to 3.2, the “KD ratio vs ref” value worked out at 0.8, the Kd was 6.8 nM and the koff is 0.0019 s⁻¹. Besides, the kon was found to be 280000 M⁻¹ s⁻¹.
Take B9: the “KD ratio cy/huTCR” value was found to be 3.1, the “KD ratio vs ref” value is 0.9, binding was characterised by a dissociation constant (Kd) of 7.1 nM and the koff is 0.0018 s⁻¹. The same molecule yielded a kon of 260000 M⁻¹ s⁻¹.
